Results taken from publication PMC3424567.

B1: hmDNA (dsDNA)
DNA 1: ATATGGGATCGTCAGTCAGCG
DNA 2: CGCTGACTGACGATCCCATAT
modifications: m6A in GATC on one strand only (which strand not recoverable from text)
B2: mDNA (dsDNA)
DNA 1: ATATGGGATCGTCAGTCAGCG
DNA 2: CGCTGACTGACGATCCCATAT
modifications: m6A at position 8 of strand 1 and position 13 of strand 2 (5'-3')
B3: nmDNA (dsDNA)
DNA 1: ATATGGGATCGTCAGTCAGCG
DNA 2: CGCTGACTGACGATCCCATAT

Tests used:
R.DpnI R231A = molecular target: T1, R.DpnI R231A (UniProt P0A460 1-254, R231A); test: filter binding
T1 sequence: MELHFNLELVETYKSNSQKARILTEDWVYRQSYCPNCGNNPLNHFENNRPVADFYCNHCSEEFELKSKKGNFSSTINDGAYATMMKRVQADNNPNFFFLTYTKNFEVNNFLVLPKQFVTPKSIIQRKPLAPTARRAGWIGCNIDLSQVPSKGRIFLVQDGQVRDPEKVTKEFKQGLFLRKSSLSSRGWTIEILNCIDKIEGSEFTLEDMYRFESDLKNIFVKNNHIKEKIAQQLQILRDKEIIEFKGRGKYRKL

R.DpnI wH domain = molecular target: T2, R.DpnI wH domain (UniProt P0A460 181-254); test: filter binding
T2 sequence: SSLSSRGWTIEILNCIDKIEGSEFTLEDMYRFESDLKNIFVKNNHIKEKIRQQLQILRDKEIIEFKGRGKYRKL

| Binder | binding result (R.DpnI R231A) | binding signal (R.DpnI wH domain) [counts] |
| --- | --- | --- |
| B1 | no binding | – |
| B2 | – | 2e+06 |
| B3 | no binding | – |
